Assay results as given in US20040086988.

Experiments:
[1] = tested on: D-fluorogenic substrate 2-aminobenzoyl-Thr-Ile-Nle-Phe(p-NO2)-Gln-Arg.amide
[2] = tested on: L-fluorogenic substrate 2-aminobenzoyl-Thr-Ile-Nle-Phe(p-NO2)-Gln-Arg.amide
[3] = tested on: D-isomer of the substrate Ac-Thr-Ile-Nle-Nle-Gln-Arg.amide
[4] = tested on: L-isomer of the substrate Ac-Thr-Ile-Nle-Nle-Gln-Arg.amide

In the case of “L-[Aba^67.95.167.195]HIV-1 protease (HIV-1 PR)”, the “cleavage of fluorogenic substrate (increase in fluorescence)” value (“cleavage … (increase in fluorescence)” for short) [1] is reported as “the L-enzyme cleaved only the L-substrate (D-substrate not cleaved)” and the “cleavage … (increase in fluorescence)” value [2] is reported as “the L-enzyme cleaved only the L-substrate”.

In the case of D-[Aba^67.95(CO-S)^51-52]2 HIV-1 PR, the “cleavage of the chiral fluorogenic substrate (fluorogenic assay, corresponding chiral substrate)” value [1] is reported as “the cleavage of chiral fluorogenic substrates by the D- and L-HIV-1 PR analogues”, the “cleavage of hexapeptide substrate (RP HPLC, products identified by ion spray MS)” value (“cleavage of hexapeptide substrate” below) [3] is reported as “The D-enzyme cleaves only the D-substrate” and the “cleavage of hexapeptide substrate” value [4] is reported as “is inactive on the L-substrate”.

“D-[Aba^67.95.167.195]HIV-1 protease (HIV-1 PR)” was tested, and the “cleavage … (increase in fluorescence)” value [1] was “the D-enzyme cleaved only the corresponding D-substrate” and the “cleavage … (increase in fluorescence)” value [2] was “the D-enzyme cleaved only the corresponding D-substrate (L-substrate not cleaved)”.

In the case of L-[Aba^67.95(CO-S)^51-52]2 HIV-1 PR, the “cleavage of hexapeptide substrate” value [3] is reported as “is inactive towards the D-substrate”, the “cleavage of the chiral fluorogenic substrate (fluorogenic assay, corresponding chiral substrate)” value [2] is reported as “the cleavage of chiral fluorogenic substrates by the D- and L-HIV-1 PR analogues” and the “cleavage of hexapeptide substrate” value [4] is reported as “the L-enzyme shows full activity towards the L-substrate”.
